Laboratory results reported in US7041801 (VANDERBILT UNIVERSITY, dated 2006).

Target: T1, integrin αVβ3 expressed by human umbilical vein endothelial cells (HUVEC) (human, UniProt P06756 31-1048; P05106 27-788)
T1 construct: whole, on cells; also called integrin alpha V beta 3
Assay: binding to HUVEC; the receptor on HUVEC was identified as αVβ3
Method: Human umbilical vein endothelial cells (HUVEC) (Clonetics Inc., San Diego, Calif.) were grown as indicated by the supplier in endothelial growth media supplemented with 10 ng/ml human recombinant epidermal growth factor, 1 μg/ml hydrocortisone, 50 μg/ml gentamicin, 12 μg/ml bovine brain extract and 2% FBS. Cells were grown at: 37° C./5% CO_2 to 70% confluency before use in the binding assay. […] The plates were washed with PBS and blocked for 30 min with a solution of heat treated (95° C. for 5 min) PBS containing 3% BSA. HUVEC cells were harvested by trypsinization and resuspended in an adhesion buffer (Hanks balanced salt solution pH 7.4 containing 10 mM Hepes, 2.2 mM MgCl_2, 0.2 mM MnCl_2 and 1% BSA). Cells (10^4/100 μl) were added to each well in the presence or absence of the indicated antagonists or controls at varying concentrations. […] Cells were incubated at 37° C./5% CO_2 for 60–90 min and wells were washed until no cells remained in the BSA control. To count remaining cells, 100 μl of endothelial media was added to each well. Cells number was determined by the Promega Cell titer AQ as indicated by the manufacturer.

T1 sequence (P06756 31-1048, chain 1 of 2): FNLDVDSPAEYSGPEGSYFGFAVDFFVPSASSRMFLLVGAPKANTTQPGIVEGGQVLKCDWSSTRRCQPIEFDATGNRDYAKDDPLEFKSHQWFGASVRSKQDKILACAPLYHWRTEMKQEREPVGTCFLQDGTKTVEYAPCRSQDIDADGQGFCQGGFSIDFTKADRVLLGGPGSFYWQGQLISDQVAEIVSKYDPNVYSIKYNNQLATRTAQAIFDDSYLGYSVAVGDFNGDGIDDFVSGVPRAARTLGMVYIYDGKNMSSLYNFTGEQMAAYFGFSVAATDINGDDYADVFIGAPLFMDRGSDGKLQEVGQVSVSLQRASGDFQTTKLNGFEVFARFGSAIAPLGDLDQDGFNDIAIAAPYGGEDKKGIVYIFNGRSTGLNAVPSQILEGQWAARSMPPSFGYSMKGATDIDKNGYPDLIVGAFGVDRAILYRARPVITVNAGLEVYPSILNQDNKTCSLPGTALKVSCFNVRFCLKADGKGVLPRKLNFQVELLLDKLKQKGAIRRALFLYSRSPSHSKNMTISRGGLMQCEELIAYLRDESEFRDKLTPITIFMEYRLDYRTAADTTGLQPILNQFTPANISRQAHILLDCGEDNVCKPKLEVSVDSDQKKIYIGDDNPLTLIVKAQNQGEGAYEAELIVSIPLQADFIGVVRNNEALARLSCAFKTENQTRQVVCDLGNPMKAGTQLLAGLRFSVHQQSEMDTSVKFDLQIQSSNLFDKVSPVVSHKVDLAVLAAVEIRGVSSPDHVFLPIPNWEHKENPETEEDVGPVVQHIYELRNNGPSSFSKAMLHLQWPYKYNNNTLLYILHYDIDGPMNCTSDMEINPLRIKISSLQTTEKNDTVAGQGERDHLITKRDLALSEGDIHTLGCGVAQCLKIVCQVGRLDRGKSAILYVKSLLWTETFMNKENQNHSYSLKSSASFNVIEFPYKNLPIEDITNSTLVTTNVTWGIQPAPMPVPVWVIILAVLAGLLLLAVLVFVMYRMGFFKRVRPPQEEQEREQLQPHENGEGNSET
T1 sequence (P05106 27-788, chain 2 of 2): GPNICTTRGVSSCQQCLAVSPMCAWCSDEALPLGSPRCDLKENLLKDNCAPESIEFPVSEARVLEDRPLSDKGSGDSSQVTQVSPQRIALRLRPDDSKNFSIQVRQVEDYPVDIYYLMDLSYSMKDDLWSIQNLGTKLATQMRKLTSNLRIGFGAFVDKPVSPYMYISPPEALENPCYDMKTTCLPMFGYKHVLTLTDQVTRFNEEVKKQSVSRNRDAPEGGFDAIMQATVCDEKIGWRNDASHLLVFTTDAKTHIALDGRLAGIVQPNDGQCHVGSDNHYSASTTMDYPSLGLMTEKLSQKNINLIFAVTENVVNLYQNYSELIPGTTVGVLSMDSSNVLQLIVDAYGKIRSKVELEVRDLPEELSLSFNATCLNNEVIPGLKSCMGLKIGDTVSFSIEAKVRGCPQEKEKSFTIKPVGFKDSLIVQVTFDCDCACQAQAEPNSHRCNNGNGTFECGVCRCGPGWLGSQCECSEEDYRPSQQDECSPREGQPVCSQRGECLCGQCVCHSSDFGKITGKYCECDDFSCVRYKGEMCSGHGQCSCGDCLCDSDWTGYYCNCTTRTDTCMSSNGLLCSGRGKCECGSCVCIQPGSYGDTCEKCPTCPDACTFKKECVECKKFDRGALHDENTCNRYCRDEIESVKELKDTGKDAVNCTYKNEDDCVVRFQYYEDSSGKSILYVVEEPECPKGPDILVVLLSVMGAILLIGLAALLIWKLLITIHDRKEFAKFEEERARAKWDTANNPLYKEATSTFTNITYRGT

binding result: binds
B1: murine Del-1 (major form) expressed by del-1 transfected yolk sac YS-B cells (ligand)
chain: DICNPNPCENGGICLSGLADDSFSCECPEGFAGPNCSSVVEVASDEEKPTSAGPCIPNPCHNGGTCEISEAYRGDTFIGYVCKCPRGFNGIHCQHNINECEAEPCRNGGICTDLVANYSCECPGEFMGRNCQYKCSGHLGIEGGIISNQQITASSNHRALFGLQKWYPYYARLNKKGLINAWTAAENDRWPWIQINLQRKMRVTGVITQGAKRIGSPEYIKSYKIAYSNDGKTWAMYKVKGTNEEMVFRGNVDNNTPYANSFTPPIKAQYVRLYPQICRRHCTLRMELLGCELSGCSEPLGMKSGHIQDYQITASSVFRTLNMDMFTWEPRKARLDKQGKVNAWTSGHNDQSQWLQVDLLVPTKVTGIITQGAKDFGHVQFVGSYKLAYSNDGEHWMVHQDEKQRKDKVFQGNFDNDTHRKNVIDPPIYARFIRILPWSWYGRITLRSELLGCAEEE
notes: The protein is found in cell lysates, on the cell membrane and in the extracellular matrix of the transfectants (52 kDa band); also called del-1 transfectants; full-length Del-1 protein
